The results in this text go back to patent publication US20220177587A1, “METHODS AND USES OF VARIANT CD80 FUSION PROTEINS AND RELATED CONSTRUCTS” (Alpine Immune Sciences, Inc., priority 2018, published 2022).

Residue numbers refer to the chain shown, from its start. Names may count otherwise.

Assay [1] addresses T1, CD28 (Homo sapiens, UniProt P10747). As to the kind of experiment: Flow binding to Jurkat/IL2 reporter cells (CD28). Details: host or cells: Jurkat cells expressing an IL-2-luciferase reporter. As to conditions: 33.3 nM. The procedure:
(§1) Binding of selected immunomodulatory fusion proteins to cognate binding partners was assessed. […] Cells were sorted in a Bio-Rad S3 Cell Sorter (Bio-Rad Corp., USA) to >98% purity. Jurkat/IL2 reporter cells, which endogenously express CD28, were used to detect binding to CD28.
(§2) For staining and analysis by flow cytometry, 100,000 cells of appropriate transfected cells were plated in 96-well round bottom plates. Cells were spun down and resuspended in staining buffer (phosphate buffered saline (PBS), 1% bovine serum albumin (BSA), and 0.1% sodium azide) for 20 minutes to block non-specific binding. […] Primary staining was performed on ice for 45 minutes, before washing cells in staining buffer twice. Phycoerythrin (PE)-conjugated anti-human Fc (Jackson ImmunoResearch, USA) was diluted 1:150, added to cells and incubated another 30 minutes on ice. Cells were then washed twice with 150 μL/well stain buffer, fixed in 2% formaldehyde/PBS, and analyzed on Intellicyt flow cytometer (Intellicyt Corp., USA). PE Mean Fluorescence Intensity (MFI) was calculated for each cell type with FlowJo Version 10 software (FlowJo LLC, USA).
(§3) Binding assays were carried out to assess the specificity and affinity of multivalent proteins to cell-expressed CTLA-4, CD28, and PD-L1 counter structures.
(§4) The EC50 for binding also was determined.

Another assay deals with huPD-L1 (Homo sapiens, UniProt Q9NZQ7). Put plainly: Flow binding to CHO cells stably expressing PD-L1. Details: huCTLA4 and huPD-L1, full-length mammalian surface expression constructs were generated; expressed in transfected cells; host or cells: CHO cells, lentiviral transduction, sorted to >98% purity. The following applies: CHO cells stably expressing PD-L1, 33.3 nM. How it is done:
as §1, §2, §3, §4

Assay [2] addresses T1, CD28. Put plainly: Jurkat/IL2 + CHO/OKT3 +/- PD-L1 reporter assay: PD-L1-dependent CD28 costimulation. Details: host or cells: Jurkat cells expressing an IL-2-luciferase reporter. As to conditions: Jurkat/IL2 + CHO/OKT3/PD-L1, 5.0 nM. It is filed as cell-based. The procedure: Jurkat cells were then plated at 50 μL/well for a total of 100,000 cells per well.
To each well, 25 μL of test protein was added to the Jurkat cells. […] The Jurkat cells with test or control proteins were incubated for 15 minutes at room temperature. CHO-derived artificial antigen presenting cells (aAPC) displaying transduced cell surface anti-CD3 single chain Fv (OKT3) (i.e., no PD-L1), or OKT3 and PD-L1 (i.e., +PD-L1), were brought to 0.8×10^6 cells/mL, and 25 μL of cells were added to each well, bringing the final volume of each well to 100 μL. […] Jurkat cells and CHO cells were incubated for 5 hours at 37 degrees Celsius in a humidified 5% CO2 incubation chamber. Plates were then removed from the incubator and acclimated to room temperature for 15 minutes. 100 μL of a cell lysis and luciferase substrate solution (BioGlo luciferase reagent, Promega) were added to each well and the plates were incubated on an orbital shaker for 10 minutes. Luminescence was measured with a 1 second per well integration time using a BioTek Cytation luminometer, and a relative luminescence value (RLU) was determined for each test sample.

Sequence of huPD-L1 (Q9NZQ7 19-290): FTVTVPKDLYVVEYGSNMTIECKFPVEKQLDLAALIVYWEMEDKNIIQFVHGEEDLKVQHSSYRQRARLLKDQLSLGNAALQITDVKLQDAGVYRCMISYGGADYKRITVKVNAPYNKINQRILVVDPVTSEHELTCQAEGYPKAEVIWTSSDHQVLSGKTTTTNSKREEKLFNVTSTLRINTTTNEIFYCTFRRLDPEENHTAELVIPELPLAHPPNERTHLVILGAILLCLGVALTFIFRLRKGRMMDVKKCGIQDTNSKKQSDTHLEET

B1: E35D/M47V/N48I/L85Q (protein)
chain: VIHVTKEVKEVATLSCGHNVSVEELAQTRIYWQKDKKMVLTMMSGDVTIWPEYKNRTIFDITNNLSIVILALRPSDEGTYECVVQKYEKDAFKREHLAEVTLSVKAD
Take B1: the “CD28 MFI at 33.3 nM” value with CD28 [1] (Table E4, Jurkat cells (CD28)) was determined as 692.

B2: T13R/E35D/M47LN68M (protein)
chain: B1 chain with T13R, V47L, T48N, V68M, Q85L
Consider B2, for which the “CD28 MFI at 33.3 nM” value with CD28 [1] (Table E11, Jurkats (CD28)) was 15.6. Moreover, in the assay with huPD-L1 (Table E11), the “PD-L1 MFI at 33.3 nM” value came out at 19969.

B3: E35D/N48K/L72V (protein)
chain: B1 chain with V47M, T48K, L72V, Q85L
Take B3: the “CD28 MFI at 33.3 nM” value with CD28 [1] (Table E10, Jurkats (CD28)) amounted to 582. Also, the “Relative Luciferase Units (RLU), CD80 Cone 5.0 nM” value with CD28 [2] (Table E12) is 1731 RLU. Moreover, the “PD-L1 MFI at 33.3 nM” value with huPD-L1 (Table E10) is 3031.

B4: E35D/N48K/V68M/K89N (protein)
chain: B1 chain with V47M, T48K, V68M, Q85L, K89N
With B4, in the assay with CD28 [1] (Table E19, Jurkats (CD28)), the “CD28 MFI at 33.3 nM” value is given as 1534. Further, in the assay with huPD-L1 (Table E19), the “PD-L1 MFI at 33.3 nM” value was 17425.

B5: E35D/L97R (protein)
chain: B1 chain with V47M, T48N, Q85L, L97R
B5: the “CD28 MFI at 33.3 nM” value in the assay with CD28 [1] (Table E10, Jurkats (CD28)) is listed as 44.6. In the assay with CD28 [2] (Table E12), the “Relative Luciferase Units (RLU), CD80 Cone 5.0 nM” value came out at 914 RLU. Further, in the assay with huPD-L1 (Table E10), the “PD-L1 MFI at 33.3 nM” value worked out at 2614.

B6: E35D/M47V/N48K/L85M (protein)
chain: B1 chain with T48K, Q85M
Regarding B6, the “CD28 MFI at 33.3 nM” value with CD28 [1] (Table E10, Jurkats (CD28)) turned out to be 413. Further, the “Relative Luciferase Units (RLU), CD80 Cone 5.0 nM” value with CD28 [2] (Table E12) came out at 2116 RLU. The “PD-L1 MFI at 33.3 nM” value with huPD-L1 (Table E10) amounted to 5660.

B7: E35D/D46E/M47L/V68M/T79M/L85M (protein, UniProt P33681 35-288, looked up, variant E35D D46E M47L V68M T79M L85M)
T-lymphocyte activation …: VIHVTKEVKEVATLSCGHNVSVEELAQTRIYWQKDKKMVLTMMSGELNIWPEYKNRTIFDITNNLSIMILALRPSDEGMYECVVMKYEKDAFKREHLAEVTLSVKADFPTPSISDFEIPTSNIRRIICSTSGGFPEPHLSWLENGEELNAINTTVSQDPETELYAVSSKLDFNMTTNHSFMCLIKYGHLRVNQTFNWNTTKQEHFPDNLLPSWAITLISVNGIFVICCLTYCFAPRCRERRRNERLRRESVRPV
Turning to B7, the “CD28 MFI at 33.3 nM” value with CD28 [1] (Table E11, Jurkats (CD28)) stood at 403. In addition, in the assay with CD28 [2] (Table E13), the “Relative Luciferase Units (RLU), CD80 Cone 5.0 nM” value was 1137 RLU. The “PD-L1 MFI at 33.3 nM” value in the assay with huPD-L1 (Table E11) came to 8641.

B8: H18Y/E35D/M47I/V68M/Y87N (protein, UniProt P33681 35-288, looked up, variant H18Y E35D M47I V68M Y87N)
T-lymphocyte activation …: B7 T-lymphocyte activation … with H18Y, E46D, L47I, M79T, M85L, Y87N
modifications: Fc fusion
Take B8: the “CD28 MFI at 33.3 nM” value with CD28 [1] (Table E11, Jurkats (CD28)) was determined as 4038; in the assay with CD28 [1] (Table E16, consensus variants, Jurkats (CD28)) it was 1429.

B9: E35D/M47V/N48K/V68M/K89N GS(G4S)3 (protein, UniProt P33681 35-288, looked up, variant E35D M47V N48K V68M K89N)
T-lymphocyte activation …: B7 T-lymphocyte activation … with E46D, L47V, N48K, M79T, M85L, K89N
modifications: GS(G4S)3 linker
With B9, in the assay with CD28 [1] (Table E25, linker variants, Jurkats (CD28)), the “CD28 MFI at 33.3 nM” value was 2109. The “Relative Luciferase Units (RLU), CD80 Conc 5.0 nM” value with CD28 [2] (Table E26, linker variants) was found to be 1400 RLU.
